# “Also recorded” adds a separate entry of the source.
# B1: OMP-18R5: anti-FZD antibody, IgG2, also known as vantictumab; heavy chain SEQ ID NO:3, light chain SEQ ID NO:4 (antibody)
# heavy: EVQLVESGGGLVQPGGSLRLSCAASGFTFSHYTLSWVRQAPGKGLEWVSVISGDGSYTYYADSVKGRFTISSDNSKNTLYLQMNSLRAEDTAVYYCARNFIKYVFANWGQGTLVTVSSASTKGPSVFPLAPCSRSTSESTAALGCLVKDYFPEPVTVSWNSGALTSGVHTFPAVLQSSGLYSLSSVVTVPSSNFGTQTYTCNVDHKPSNTKVDKTVERKCCVECPPCPAPPVAGPSVFLFPPKPKDTLMISRTPEVTCVVVDVSHEDPEVQFNWYVDGVEVHNAKTKPREEQFNSTFRVVSVLTVVHQDWLNGKEYKCKVSNKGLPAPIEKTISKTKGQPREPQVYTLPPSREEMTKNQVSLTCLVKGFYPSDIAVEWESNGQPENNYKTTPPMLDSDGSFFLYSKLTVDKSRWQQGNVFSCSVMHEALHNHYTQKSLSLSPGK
# light: DIELTQPPSVSVAPGQTARISCSGDNIGSFYVHWYQQKPGQAPVLVIYDKSNRPSGIPERFSGSNSGNTATLTISGTQAEDEADYYCQSYANTLSLVFGGGTKLTVLGQPKAAPSVTLFPPSSEELQANKATLVCLISDFYPGAVTVAWKADSSPVKAGVETTTPSKQSNNKYAASSYLSLTPEQWKSHRSYSCQVTHEGSTVEKTVAPTECS
# How the values were obtained:
# Type in all cases: in vivo, NOD/SCID mice
# [1] = test system: UM-PE13 breast tumor cells; test: UM-PE13 breast tumor xenograft, staggered dosing of OMP-18R5 and paclitaxel (Example 2)
# Procedure: FIG. 2. Inhibition of breast tumor growth in vivo by a Wnt pathway inhibitor in combination with a taxane using a staggered dosing schedule. UM-PE13 breast tumor cells were injected subcutaneously into NOD/SCID mice. […] OMP-18R5 was administered at 25 mg/kg and paclitaxel at 20 mg/kg. Agents were administered every three weeks and administered intraperitoneally. Data is shown as tumor volume (mm^3) over days post treatment.
# Single cell suspensions of xenograft UM-PE13 breast tumor cells (20,000 cells) were injected subcutaneously into 6-8 week old NOD/SCID mice. UM-PE13 is a triple negative breast cancer. Tumors were allowed to grow 34 days until they reached an average volume of 80 mm^3. The mice were randomized (n=8 per group) and treated with paclitaxel, a combination of OMP-18R5 and paclitaxel administered on the same day, a combination of OMP-18R5 and paclitaxel where the paclitaxel was administered 3 days prior to OMP-18R5, a combination of OMP-18R5 and paclitaxel where OMP-18R5 was administered 3 days prior to the paclitaxel, or a control antibody. Mice were treated once every three weeks with OMP-18R5 at a dose of 25 mg/kg and paclitaxel at a dose of 20 mg/kg. OMP-18R5 and paclitaxel were administered intraperitoneally. Tumor growth was monitored and tumor volumes were measured with electronic calipers at the indicated time points. Data are expressed as mean±S.E.M.
# [2] = test system: cancer stem cells in OMP-LU77 lung tumors; test: Limiting dilution assay, cancer stem cell frequency in OMP-LU77 lung tumors (Example 7); details: tumors from mice treated with vantictumab administered prior to paclitaxel; 50, 150, 500 cells implanted, 79 days; FIG. 5B
# Description: FIGS. 5A-5B. Cancer Stem Cell frequency. FIG. 5A. Tumor growth in mice following implantation of 50, 150, or 500 OMP-LU77 tumor cells obtained from mice that had been treated with either control antibody (Control mAb), paclitaxel (Pac), or the combination of OMP-18R5 and paclitaxel (Van+Pac). FIG. 5B. Cancer stem cell (CSC) frequency in OMP-LU77 lung tumors following treatment with control antibody (Control mAb), paclitaxel, or a combination of OMP-18R5 antibody and paclitaxel (Van+Pac) as determined by limiting dilution analysis.
# Limiting dilution assays (LDAs) can be used to assess the effect of Wnt pathway inhibitors on solid tumor cancer stem cells and/or on the tumorigenicity of a tumor. The assays can be used to determine the frequency of cancer stem cells in tumors from animals treated with the Wnt pathway inhibitor and to compare that frequency to the frequency of cancer stem cells in tumors from control animals. […]
# For the LDA, the tumor cells in the suspension were harvested, counted, and appropriate cell doses (50, 150, and 500 cells) were injected subcutaneously in NOD/SCID mice (10 mice per cell dose per treatment group). […] The percentage of mice with detectable tumors was determined in all treatment groups and compared to the percentage of mice with detectable tumors in the controls. […]
# [3] = test system: OMP-OV40 ovarian tumor cells; test: OMP-OV40 ovarian tumor xenograft, staggered dosing of Wnt inhibitors and paclitaxel (Example 11); details: Wnt pathway inhibitor 25 mg/kg administered 2 days prior to paclitaxel 20 mg/kg, every two weeks i.p.; versus single agents; FIG. 9
# Procedure: FIG. 9A-9B. Inhibition of ovarian tumor growth in vivo by a Wnt pathway inhibitor in combination with a taxane using a staggered dosing schedule. FIG. 9A. OMP-OV40 ovarian tumor cells were injected subcutaneously into NOD/SCID mice. Mice were treated with control antibody (-•-), OMP-18R5 (-▴-), paclitaxel (-▪-), or a combination of OMP-18R5 and paclitaxel, where OMP-18R5 was administered 2 days prior to administration of paclitaxel (-⋄-). […]. OMP-OV40 ovarian tumor cells were injected subcutaneously into NOD/SCID mice. Mice were treated with control antibody (-•-), OMP-54F28 (-▴-), paclitaxel (-▪-), or a combination of OMP-54F28 and paclitaxel, where OMP-54F28 was administered 2 days prior to administration of paclitaxel (-⋄-). OMP-18R5, OMP-54F28 and control antibody were administered at 25 mg/kg and paclitaxel was administered at 20 mg/kg. Agents were administered once every two weeks and administered intraperitoneally. Data is shown as tumor volume (mm^3) over days post treatment.
# Single cell suspensions of xenograft OMP-OV40 ovarian tumor cells were injected subcutaneously into 6-8 week old NOD/SCID mice. Tumors were allowed to grow until they reached an average volume of approximately 128 mm^3. […] Tumor growth was monitored and tumor volumes were measured with electronic calipers at the indicated time points. Data are expressed as mean±S.E.M.
molecule,measurement,setting,value
B1,inhibition of tumor growth (tumor volume),"[1]; OMP-18R5 25 mg/kg administered 3 days prior to paclitaxel 20 mg/kg, every three weeks i.p., versus same day, paclitaxel first, paclitaxel alone, FIG. 2",significantly better at inhibiting tumor growth of the UM-PE13 breast tumor cells than any of the other dosing regimens
same,tumor regression in individual mice,[1]; Wnt pathway inhibitor (OMP-18R5) administered before the taxane (paclitaxel),tumors in several of the individual mice regressed to undetectable levels
same,"cancer stem cell frequency (limiting dilution analysis, L-Calc)",[2],significantly decreased the cancer stem frequency
same,inhibition of tumor growth (tumor volume),[3],inhibited tumor growth of the OMP-OV40 ovarian tumor cells to a greater extent than either the Wnt pathway inhibitors or paclitaxel alone; also recorded: inhibited tumor growth

# Reference: patent US20170247465A1, “COMBINATION THERAPY FOR TREATMENT OF CANCER” (OncoMed Pharmaceuticals, Inc., priority 2014, published 2017)
